Data taken from PMC6278376, “Dynamics-Derived Insights into Complex Formation between the CXCL8 Monomer and CXCR1 N-Terminal Domain: An NMR Study” (Molecules, 2018).

Key:
[1] = biological target: T1, CXCL8 monomer (residues 1–66) (disulfides Cys9-Cys50 (printed) and Cys7-Cys34 (by convention), mature numbering; mature residue 1 = precursor 28 (offset +27), matching PDB 5WDZ entity 1 (66 aa); 15N-labelled for NMR); test: ITC; 890 μM CXCR1 N-domain peptide injected into 80 μM CXCL8 monomer; 50 mM sodium phosphate pH 6.0, 25 °C; single-binding site model; settings: both partners purified
T1 sequence (chain, as listed by the source): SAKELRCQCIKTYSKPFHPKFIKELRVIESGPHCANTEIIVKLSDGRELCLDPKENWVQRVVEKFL

[2] = biological target: T1, CXCL8 monomer (residues 1–66); test: NMR titration; 200 μM 15N-CXCL8 titrated with unlabeled CXCR1 peptide (2.5 mM stock, molar ratios 0 to 8.4); 2D 1H-15N HSQC; shift changes fit to a 1:1 model for KD; line shape analysis (Bloch–McConnell, two-site exchange) for koff, kon = koff/KD; 50 mM sodium phosphate pH 6.0, 30 °C; settings: both partners purified

Kd [1]: 8.4 ± 0.5 µM
dH [1]: -2.6 ± 0.2 kcal/mol
stoichiometry N [1]: 0.93 ± 0.03
Kd [2]: ~5 µM
B1: CXCR1 N-domain peptide corresponding to the first 29 amino acids (29mer) (peptide, UniProt P25024 1-29, looked up)
chain: MSNITDPQMWDFDDLNFTGMPPADEDYSP
notes: CXCR1 receptor, N-terminal domain, first 29 amino acids (M1, S2 ... S28 named in the text); human by the discussion's contrast with the rabbit peptide; Recombinant peptide; 15N-labelled where it was the observed species in NMR, unlabelled otherwise; also called CXCR1 N-domain 29mer; CXCR1 N-terminal domain; source: E. coli BL21(DE3), purified
